15 molecules from patent US20080015137A1 (University of Texas, published 2008) can be followed below.

No end group written: not given here.

Assay [1] concerns the target T1, Karyopherin beta2 (Kapβ2), full length, wild type (human, UniProt Q92973-2 1-890).
T1 construct: mature; Expressed as a GST fusion from pGEX-Tev and purified; Also used here for the Kapβ2 added in the GST pull-downs; also called Transportin
T1 sequence (looked up): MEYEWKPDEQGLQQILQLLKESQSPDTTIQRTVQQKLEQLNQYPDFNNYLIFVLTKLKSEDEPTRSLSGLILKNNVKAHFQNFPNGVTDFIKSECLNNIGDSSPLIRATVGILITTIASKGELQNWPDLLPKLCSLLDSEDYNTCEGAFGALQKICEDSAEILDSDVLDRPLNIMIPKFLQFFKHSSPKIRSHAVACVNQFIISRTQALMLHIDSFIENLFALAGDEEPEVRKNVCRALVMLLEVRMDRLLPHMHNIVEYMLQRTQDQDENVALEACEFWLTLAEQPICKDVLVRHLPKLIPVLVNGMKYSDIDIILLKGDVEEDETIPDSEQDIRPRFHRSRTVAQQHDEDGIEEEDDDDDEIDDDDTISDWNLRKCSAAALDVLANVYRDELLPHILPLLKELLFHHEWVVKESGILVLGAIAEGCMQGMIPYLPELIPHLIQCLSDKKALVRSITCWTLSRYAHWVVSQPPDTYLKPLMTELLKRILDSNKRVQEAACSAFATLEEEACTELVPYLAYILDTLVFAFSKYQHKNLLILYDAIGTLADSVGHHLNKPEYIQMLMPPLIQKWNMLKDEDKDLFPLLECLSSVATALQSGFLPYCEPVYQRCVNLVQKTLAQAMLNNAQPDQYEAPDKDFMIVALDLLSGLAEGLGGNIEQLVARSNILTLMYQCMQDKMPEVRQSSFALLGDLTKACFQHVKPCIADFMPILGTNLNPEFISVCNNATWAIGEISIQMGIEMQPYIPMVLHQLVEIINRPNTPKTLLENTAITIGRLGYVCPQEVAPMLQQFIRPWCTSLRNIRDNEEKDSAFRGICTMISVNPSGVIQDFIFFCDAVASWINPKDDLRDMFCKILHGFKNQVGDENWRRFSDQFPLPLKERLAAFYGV
Briefly: ITC; MBP-hnRNP M(41-70) titrated into full-length Kapβ2. On the procedure:
(§1) Quantitation of binding affinity with Isothermal Titration Calorimetry. Binding affinities for wild type and mutant MBP-hnRNP M-NLS were determined using Isothermal titration calorimetry (ITC). The experiments were performed using a MicroCal Omega VP-ITC calorimeter (MicroCal Inc., Northampton, Mass.). MBP-NLS proteins were dialyzed against buffer containing 20 mM Tris pH 7.5, 100 mM NaCl and 2 mM β-mercaptoethanol. […] All ITC experiments were done at 20° C. with 35 rounds of 8 μl injections. Data were plotted and analyzed using the single binding site model of MicroCal Origin software version 7.0.

The target of assay [2] is T1, Karyopherin beta2 (Kapβ2), full length, …. Briefly: ITC; MBP-hnRNP M(41-70) mutant titrated into full-length Kapβ2. On the procedure: as §1
Assay [3] has the same target. Description: ITC; MBP-hnRNP M(41-70) mutant titrated into full-length Kapβ2; unit cell prints only n. Here is the method: as §1
Assay [4] has the same target. Description: competition ITC; 108 µM MBP-M9M titrated into 12 µM Kapβ2 with 18 µM MBP-hnRNP A1-NLS R284A/P288A/Y289A as displacement ligand.
The target is the same in assay [5]. Description: competition ITC; repeat with 20 µM MBP-hnRNP A1-NLS R284A/P288A/Y289A as displacement ligand.
The target is the same in assay [6]. Briefly: competition ITC (107 pM versus 20 nM for hnRNP A1-NLS).
Assay [7] shares this target. Briefly: competition ITC (control); 154 µM MBP-hnRNP A1-NLS titrated into 12 µM Kapβ2 with MBP-hnRNP A1-NLS R284A/P288A/Y289A as displacement ligand.
The target is the same in assay [8]. Description: ITC; MBP-M9NLS(257-305) titrated into full length Kapβ2.
Experimental: Substrate residues that make two or more sidechain contacts with Kapβ2 (F273, F281, R284, P288 and Y289) were systematically mutated to alanines.
The ITC studies used a MicroCal Omega VP-ITC calorimeter (MicroCal Inc., Northampton, Mass.). Proteins were dialyzed against buffer containing 20 mM Tris pH 7.5, 100 mM NaCl and 2 mM P-mercaptoethanol. […] Most ITC studies were done at 20° C. with 35 rounds of about 8 μl injections. […] Data was plotted and analyzed using MicroCal Origin software version 7.0, with a single binding site model.

B1: MBP-hnRNP M(41-70) wild type (other, human, UniProt P52272 41-70, looked up, not shown: large carriers)
chain: ERPAQNEKRKEKNIKRGGNRFEPYANPTKR
modifications: also: MBP fusion partner, not in chain
notes: range 41-70; also called MBP-hnRNP M-NLS; hnRNP M-NLS
The molecule B1 had a dissociation constant (Kd) in assay [1] of 10 nM. Consider ERPAQNEKRKEANIKRGGNRFEPYANPTKR (other, not shown: large carriers; small tags and cut ends, also: MBP fusion partner, not in chain) [MBP-hnRNP M(41-70) K52A], for which, in assay [2], the affinity, expressed as Kd, was 14.6 nM. On the same count and under the same terms, for ERPAQNEKRKEKAIKRGGNRFEPYANPTKR (other, not shown: large carriers; small tags and cut ends, also: MBP fusion partner, not in chain) [MBP-hnRNP M(41-70) N53A] the value was 17.1 nM.

B2: MBP-hnRNP M(41-70) K50A/E51A/K52A/N53A/I54A/K55A/R56A (other, not shown: large carriers; small tags and cut ends)
chain: ERPAQNEKRAAAAAAAGGNRFEPYANPTKR
modifications: also: MBP fusion partner, not in chain
notes: also called all seven residues of 50KEKNIKR56 mutated to alanines
Take B2: the Kd in assay [2] is 1200 nM.

Take ERPAQNEKRKEKNIKRGGNRAEPYANPTKR (other, not shown: large carriers; small tags and cut ends, also: MBP fusion partner, not in chain) [MBP-hnRNP M(41-70) F61A]: binding in assay [2] was put at a Kd of 11.2 nM.

In the case of ERPAQNEKRKEKNIKRGGNRFEAAANPTKR (other, not shown: large carriers; small tags and cut ends, also: MBP fusion partner, not in chain) [MBP-hnRNP M(41-70) P63A/Y64A], the Kd in assay [2] came out at 4500 nM. The same measure, in the same setting: for ERPAQNEKRAEKNIKRGGNRFEPYANPTKR (other, not shown: large carriers; small tags and cut ends, also: MBP fusion partner, not in chain) [MBP-hnRNP M(41-70) K50A] the value was 16.4 nM.

For the molecule ERPAQNEKRKEKNAKRGGNRFEPYANPTKR (other, not shown: large carriers; small tags and cut ends, also: MBP fusion partner, not in chain) [MBP-hnRNP M(41-70) I54A], binding in assay [2] was characterised by a dissociation constant (Kd) of 8.8 nM. In assay [3], ERPAQNEKRKEKNIKRGGNRFEPYANATKR (other, not shown: large carriers; small tags and cut ends, also: MBP fusion partner, not in chain) [MBP-hnRNP M(41-70) P67A] displayed a Kd of 8.7 nM.

In assay [2], ERPAQNEKRKEKNIKAGGNRFEPYANPTKR (other, not shown: large carriers; small tags and cut ends, also: MBP fusion partner, not in chain) [MBP-hnRNP M(41-70) R56A] had a Kd of 13.9 nM. In assay [2], ERPAQNEKRKEKNIARGGNRFEPYANPTKR (other, not shown: large carriers; small tags and cut ends, also: MBP fusion partner, not in chain) [MBP-hnRNP M(41-70) K55A] showed a Kd of 7.6 nM.

B3: MBP-hnRNP M(41-70) K50A/E51A/K52A/N53A (other, not shown: large carriers; small tags and cut ends)
chain: ERPAQNEKRAAAAIKRGGNRFEPYANPTKR
modifications: also: MBP fusion partner, not in chain
notes: also called quadruple 50KEKN53/AAAA hnRNP M mutant
Molecule B3 showed a Kd in assay [2] of 22.3 nM.

ERPAQNEKRKEKNIKRGGNRAEAAANPTKR (other, not shown: large carriers; small tags and cut ends, also: MBP fusion partner, not in chain) [MBP-hnRNP M(41-70) F61A/P63A/Y64A] gave a Kd in assay [2] of 8600 nM. For the molecule GPGYSGGSRGYGSGGQGYGNQGSGYGGSFEPYANPTKR (designed binder) [MBP-M9M], the results for the Kd in assay [4] and in assay [5] were 0.107 nM and 0.111 nM, respectively. For the same molecule, the “fold tighter binding against natural NLS (hnRNP A1-NLS)” value in assay [6] turned out to be 200 fold.

B4: MBP-M9NLS(257-305) wild type (other, human, UniProt P09651-2 257-305, looked up, not shown: large carriers)
chain: GGSYNDFGNYNNQSSNFGPMKGGNFGGRSSGPYGGGGQYFAKPRNQGGY
notes: MBP fusion of the NLS peptide; also called MBP-hnRNP A1-NLS; wildtype hnRNP A1-NLS
With B4, the Kd in assay [7] is 20 nM; in assay [8], 42 nM.
